Experimental data from US20130058921A1 (published 2013).

Target: CS1 (human, UniProt Q9NQ25 23-335)
Experiment: cell-based or functional assay

B1: elotuzumab (antibody, V domains shown)
VH: EVQLVESGGGLVQPGGSLRLSCAASGFDFSRYWMSWVRQAPGKGLEWIGEINPDSSTINYAPSLKDKFIISRDNAKNSLYLQMNSLRAEDTAVYYCARPDGNYWYFDVWGQGTLVTVSS
VL: DIQMTQSPSSLSASVGDRVTITCKASQDVGIAVAWYQQKPGKVPKLLIYWASTRHTGVPDRFSGSGSGTDFTLTISSLQPEDVATYYCQQYSSYPYTFGQGTKVEIK
With B1 the “expanded autologous NK cell-mediated killing of multiple myeloma cells (51Cr release assay)” value was ≥ 1.7 fold.
